This test deals with A. diaperinus cadherin-1 (AdCad1) (Alphitobius diaperinus). Description: cell-based or functional assay.

“Cry3Bb toxin (from UniProt Q06117 64-652)” gave a larval mortality on day 3, 100 ug/cm^2 Cry3Bb, larvae injected with AdCad1-dsRNA #1 (AdCad1 knocked down) of 8% and a larval mortality on day 3, 100 ug/cm^2 Cry3Bb, larvae injected with AdCad1-dsRNA #2 (AdCad1 knocked down) of 11%.

For the origin of these results see patent US10787678.
